The values below come from article PMC6613789.

The series concerns the target apoE4 (UniProt P02649 19-317, C130R). The series is described as follows: EMSA. (In general: Mobility shift assays separate free from complexed probe on a gel.)

Chain of apoE4 (P02649 19-317 C130R): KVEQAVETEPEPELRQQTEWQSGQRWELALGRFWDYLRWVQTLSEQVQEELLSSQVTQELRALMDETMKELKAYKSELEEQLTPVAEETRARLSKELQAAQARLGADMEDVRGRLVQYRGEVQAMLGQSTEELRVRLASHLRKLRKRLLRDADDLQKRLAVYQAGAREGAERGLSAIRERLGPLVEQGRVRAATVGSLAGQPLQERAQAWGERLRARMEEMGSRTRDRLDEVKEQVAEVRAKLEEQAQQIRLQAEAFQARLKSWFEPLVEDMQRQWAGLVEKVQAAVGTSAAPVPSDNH

B1: CLEAR EMSA probe (dsDNA)
DNA 1: GTAGGTCACGTGACCGGG
DNA 2: CCCGGTCACGTGACCTAC
As for B1, the binding result was “binds”.
